# Experimental data published in patent publication US20230002480A1.
# Columns and labels:
# Experiment in all cases: cell-based or functional assay
# [1] = target: HIV-1 Env of pseudovirus CAAN5342.A2 (clade B) (HIV-1)
# [2] = target: HIV-1 Env of pseudovirus REJO4541.67 (clade B) (HIV-1)
# [3] = target: HIV-1 Env of pseudovirus TRO.11 (clade B) (HIV-1)
# [4] = target: HIV-1 Env of pseudovirus Q461.e2 (clade A) (HIV-1)
# [5] = target: HIV-1 Env of pseudovirus ZM135M.PL10a (clade C) (HIV-1)
# [6] = target: HIV-1 Env of pseudovirus ZM247v1(Rev-) (clade C (T/F)) (HIV-1)
# [7] = target: HIV-1 Env of pseudovirus SC05_8C11_2344 (clade B (T/F)) (HIV-1)
# [8] = target: HIV-1 Env of pseudovirus CNE19 (clade BC) (HIV-1)
# [9] = target: HIV-1 Env of pseudovirus RHPA4259.7 (clade B) (HIV-1)
# [10] = target: HIV-1 Env of pseudovirus Du156.12 (clade C) (HIV-1)
# [11] = target: HIV-1 Env of pseudovirus 62357_14_D3_4589 (clade B (T/F)) (HIV-1)
# [12] = target: HIV-1 Env pseudovirus 89-F1_2_25 (HIV-1)
# [13] = target: HIV-1 Env pseudovirus 6952.v1.c20 (HIV-1)
# [14] = target: HIV-1 Env pseudovirus C1080.c03 (HIV-1)
# [15] = target: HIV-1 Env pseudovirus T255-34 (HIV-1)
# [16] = target: HIV-1 Env pseudovirus P1981_C5_3 (HIV-1)
# [17] = target: HIV-1 Env pseudovirus 191955_A11 (HIV-1)
# [18] = target: HIV-1 Env pseudovirus R2184.c04 (HIV-1)
# [19] = target: HIV-1 Env pseudovirus 620345.c01 (HIV-1)
# [20] = target: HIV-1 Env pseudovirus T251-18 (HIV-1)
# [21] = target: HIV-1 Env pseudovirus C3347.c11 (HIV-1)
# [22] = target: HIV-1 Env pseudovirus T257-31 (HIV-1)
# [23] = target: HIV-1 Env pseudovirus X1193_c1 (HIV-1)
# [24] = target: HIV-1 Env pseudovirus A07412M1.vrc12 (HIV-1)
# [25] = target: HIV-1 Env pseudovirus 3301.v1.c24 (HIV-1)
substance,measurement,setting,value
N49P7.2 (antibody),IC50,[1],0.809 µg/mL
same,IC80,[1],2.81 µg/mL
same,MPI,[1],100
same,IC50,[2],0.018 µg/mL
same,IC80,[2],0.08 µg/mL
same,MPI,[2],100
same,IC50,[3],0.113 µg/mL
same,IC80,[3],0.306 µg/mL
same,MPI,[3],100
same,IC50,[4],0.472 µg/mL
same,IC80,[4],2.24 µg/mL
same,MPI,[4],100
same,IC50,[5],0.596 µg/mL
same,IC80,[5],2.8 µg/mL
same,MPI,[5],99
same,IC50,[6],0.177 µg/mL
same,IC80,[6],2.5 µg/mL
same,MPI,[6],96
same,IC50,[7],0.326 µg/mL
same,IC80,[7],1.14 µg/mL
same,MPI,[7],100
same,IC50,[8],0.033 µg/mL
same,IC80,[8],0.129 µg/mL
same,MPI,[8],100
same,IC50,[9],0.1 µg/mL
same,IC80,[9],0.289 µg/mL
same,MPI,[9],100
same,IC50,[10],0.058 µg/mL
same,IC80,[10],0.21 µg/mL
same,MPI,[10],100
same,IC50,[11],0.03 µg/mL
same,IC80,[11],0.121 µg/mL
same,MPI,[11],100
N49P9 (antibody),IC50,[12],> 50 µg/mL
same,IC80,[12],> 50 µg/mL
same,MPI,[12],23
same,IC50,[13],0.095 µg/mL
same,IC80,[13],0.258 µg/mL
same,MPI,[13],100
same,IC50,[14],0.119 µg/mL
same,IC80,[14],0.575 µg/mL
same,MPI,[14],100
same,IC50,[15],0.051 µg/mL
same,IC80,[15],0.247 µg/mL
same,MPI,[15],100
same,IC50,[16],0.308 µg/mL
same,IC80,[16],0.701 µg/mL
same,MPI,[16],100
same,IC50,[17],> 50 µg/mL
same,IC80,[17],> 50 µg/mL
same,MPI,[17],35
same,IC50,[18],0.015 µg/mL
same,IC80,[18],0.034 µg/mL
same,MPI,[18],100
same,IC50,[19],> 50 µg/mL
same,IC80,[19],> 50 µg/mL
same,MPI,[19],9
same,IC50,[20],0.147 µg/mL
same,IC80,[20],0.517 µg/mL
same,MPI,[20],100
same,IC50,[21],0.023 µg/mL
same,IC80,[21],0.065 µg/mL
same,MPI,[21],100
same,IC50,[22],0.216 µg/mL
same,IC80,[22],0.821 µg/mL
same,MPI,[22],100
same,IC50,[23],0.025 µg/mL
same,IC80,[23],0.081 µg/mL
same,MPI,[23],100
same,IC50,[24],0.142 µg/mL
same,IC80,[24],0.636 µg/mL
same,MPI,[24],100
same,IC50,[25],0.072 µg/mL
same,MPI,[25],100
N49P9.1 (antibody),IC50,[12],> 50 µg/mL
same,IC80,[12],> 50 µg/mL
same,MPI,[12],23
same,IC50,[13],0.119 µg/mL
same,IC80,[13],0.389 µg/mL
same,MPI,[13],100
same,IC50,[14],0.156 µg/mL
same,IC80,[14],0.939 µg/mL
same,MPI,[14],100
same,IC50,[15],0.092 µg/mL
same,IC80,[15],0.286 µg/mL
same,MPI,[15],100
same,IC50,[16],0.469 µg/mL
same,IC80,[16],1.52 µg/mL
same,MPI,[16],100
same,IC50,[17],> 50 µg/mL
same,IC80,[17],> 50 µg/mL
same,MPI,[17],26
same,IC50,[18],0.019 µg/mL
same,IC80,[18],0.057 µg/mL
same,MPI,[18],100
same,IC50,[19],> 50 µg/mL
same,IC80,[19],> 50 µg/mL
same,MPI,[19],7
same,IC50,[20],0.127 µg/mL
same,IC80,[20],0.352 µg/mL
same,MPI,[20],100
same,IC50,[21],0.029 µg/mL
same,IC80,[21],0.083 µg/mL
same,MPI,[21],100
same,IC50,[22],0.508 µg/mL
same,IC80,[22],1.82 µg/mL
same,MPI,[22],100
same,IC50,[23],0.042 µg/mL
same,IC80,[23],0.15 µg/mL
same,MPI,[23],100
same,IC50,[24],0.189 µg/mL
same,IC80,[24],0.947 µg/mL
same,MPI,[24],100
same,IC50,[25],0.059 µg/mL
same,IC80,[25],0.178 µg/mL
same,MPI,[25],100
N49P11 (antibody),IC50,[1],9.03 µg/mL
same,IC80,[1],20.8 µg/mL
same,MPI,[1],100
same,IC50,[2],10.8 µg/mL
same,IC80,[2],27.1 µg/mL
same,MPI,[2],100
same,IC50,[3],0.179 µg/mL
same,IC80,[3],0.937 µg/mL
same,MPI,[3],100
same,IC50,[4],0.363 µg/mL
same,IC80,[4],2.15 µg/mL
same,MPI,[4],100
same,IC50,[5],3.97 µg/mL
same,IC80,[5],16.6 µg/mL
same,MPI,[5],100
same,IC50,[6],7.48 µg/mL
same,IC80,[6],21.5 µg/mL
same,MPI,[6],100
same,IC50,[7],5.42 µg/mL
same,IC80,[7],20.5 µg/mL
same,MPI,[7],100
same,IC50,[8],0.437 µg/mL
same,IC80,[8],5.5 µg/mL
same,MPI,[8],100
same,IC50,[9],0.202 µg/mL
same,IC80,[9],0.956 µg/mL
same,MPI,[9],100
same,IC50,[10],2.4 µg/mL
same,IC80,[10],12 µg/mL
same,MPI,[10],100
same,IC50,[11],0.599 µg/mL
same,IC80,[11],3.56 µg/mL
same,MPI,[11],100
N49P18.1 (antibody),IC50,[1],16.1 µg/mL
same,IC80,[1],49.1 µg/mL
same,MPI,[1],83
same,IC50,[2],4.08 µg/mL
same,IC80,[2],30.1 µg/mL
same,MPI,[2],89
same,IC50,[3],4.25 µg/mL
same,IC80,[3],11.7 µg/mL
same,MPI,[3],99
same,IC50,[4],24.7 µg/mL
same,IC80,[4],> 50 µg/mL
same,MPI,[4],68
same,IC50,[5],> 50 µg/mL
same,IC80,[5],> 50 µg/mL
same,MPI,[5],46
same,IC50,[6],10.9 µg/mL
same,IC80,[6],> 50 µg/mL
same,MPI,[6],79
same,IC50,[7],17.3 µg/mL
same,IC80,[7],> 50 µg/mL
same,MPI,[7],79
same,IC50,[8],2.34 µg/mL
same,IC80,[8],9.64 µg/mL
same,MPI,[8],99
same,IC50,[9],4.34 µg/mL
same,IC80,[9],21.4 µg/mL
same,MPI,[9],98
same,IC50,[10],1.88 µg/mL
same,IC80,[10],6.81 µg/mL
same,MPI,[10],100
same,IC50,[11],10.4 µg/mL
same,IC80,[11],48 µg/mL
same,MPI,[11],82
